Data taken from the Human Domainome abundance scans (Beltran et al. 2025).
± gives the uncertainty stated by the source.

Experiment: abundance fitness (aPCA) (normalised: wild type 0, dead -1); higher = more abundant; growth selection in yeast, the domain comes from the species named
Conditions: Homo sapiens
For “NEDD4-like E3 ubiquitin-protein ligase WWP2 D492E, O00308”, the abundance fitness was 0.039 ± 0.065. Work on “NEDD4-like E3 ubiquitin-protein ligase WWP2 A445C, O00308” yielded an abundance fitness of 0.056 ± 0.03. “NEDD4-like E3 ubiquitin-protein ligase WWP2 E457H, O00308” gave an abundance fitness of -0.089 ± 0.035. “NEDD4-like E3 ubiquitin-protein ligase WWP2 G482I, O00308” showed an abundance fitness of -0.077 ± 0.046. With “NEDD4-like E3 ubiquitin-protein ligase WWP2 S456D, O00308” the abundance fitness was 0.085 ± 0.071. In the case of “NEDD4-like E3 ubiquitin-protein ligase WWP2 E457N, O00308”, the abundance fitness is reported as -0.189 ± 0.068. Work on “NEDD4-like E3 ubiquitin-protein ligase WWP2 S481P, O00308” yielded an abundance fitness of 0.003 ± 0.049. Work on “NEDD4-like E3 ubiquitin-protein ligase WWP2 T483A, O00308” yielded an abundance fitness of -0.041 ± 0.034. Work on “Transcription factor SOX-11 I79L, P35716” yielded an abundance fitness of -0.225 ± 0.058. In the case of “NEDD4-like E3 ubiquitin-protein ligase WWP2 D492L, O00308”, the abundance fitness is reported as -0.149 ± 0.061. “NEDD4-like E3 ubiquitin-protein ligase WWP2 V463E, O00308” gave an abundance fitness of -0.16 ± 0.056. In the case of “NEDD4-like E3 ubiquitin-protein ligase WWP2 E480V, O00308”, the abundance fitness is reported as -0.064 ± 0.035. For “NEDD4-like E3 ubiquitin-protein ligase WWP2 Y461F, O00308”, the abundance fitness was -0.236 ± 0.075. “NEDD4-like E3 ubiquitin-protein ligase WWP2 F472K, O00308” gave an abundance fitness of -0.355 ± 0.07. For “NEDD4-like E3 ubiquitin-protein ligase WWP2 F462A, O00308”, the abundance fitness was -1.02 ± 0.067. “NEDD4-like E3 ubiquitin-protein ligase WWP2 E443V, O00308” gave an abundance fitness of -0.087 ± 0.036. For “NEDD4-like E3 ubiquitin-protein ligase WWP2 V459G, O00308”, the abundance fitness was -0.111 ± 0.051. In the case of “NEDD4-like E3 ubiquitin-protein ligase WWP2 R476L, O00308”, the abundance fitness is reported as -0.202 ± 0.037. Work on “Transcription factor SOX-11 M68A, P35716” yielded an abundance fitness of -0.247 ± 0.066. Substance “NEDD4-like E3 ubiquitin-protein ligase WWP2 G458V, O00308” has an abundance fitness of -0.992 ± 0.065. Work on “NEDD4-like E3 ubiquitin-protein ligase WWP2 G458K, O00308” yielded an abundance fitness of -0.049 ± 0.045. For “NEDD4-like E3 ubiquitin-protein ligase WWP2 E457I, O00308”, the abundance fitness was -0.285 ± 0.042. Work on “NEDD4-like E3 ubiquitin-protein ligase WWP2 M440A, O00308” yielded an abundance fitness of -0.137 ± 0.1. Substance “NEDD4-like E3 ubiquitin-protein ligase WWP2 F479C, O00308” has an abundance fitness of -0.054 ± 0.046. With “NEDD4-like E3 ubiquitin-protein ligase WWP2 P444H, O00308” the abundance fitness was 0.015 ± 0.037. Work on “NEDD4-like E3 ubiquitin-protein ligase WWP2 E457S, O00308” yielded an abundance fitness of -0.201 ± 0.061. For “NEDD4-like E3 ubiquitin-protein ligase WWP2 Y454Q, O00308”, the abundance fitness was 0.008 ± 0.071. Substance “NEDD4-like E3 ubiquitin-protein ligase WWP2 V459N, O00308” has an abundance fitness of -0.024 ± 0.076. Work on “NEDD4-like E3 ubiquitin-protein ligase WWP2 K473M, O00308” yielded an abundance fitness of 0.093 ± 0.08. In the case of “NEDD4-like E3 ubiquitin-protein ligase WWP2 S487R, O00308”, the abundance fitness is reported as -0.006 ± 0.034. “NEDD4-like E3 ubiquitin-protein ligase WWP2 T469H, O00308” showed an abundance fitness of -0.26 ± 0.036. “NEDD4-like E3 ubiquitin-protein ligase WWP2 P447N, O00308” showed an abundance fitness of -0.11 ± 0.075. “NEDD4-like E3 ubiquitin-protein ligase WWP2 Q442G, O00308” showed an abundance fitness of -0.071 ± 0.052. In the case of “NEDD4-like E3 ubiquitin-protein ligase WWP2 G489I, O00308”, the abundance fitness is reported as -0.035 ± 0.078. In the case of “NEDD4-like E3 ubiquitin-protein ligase WWP2 P444F, O00308”, the abundance fitness is reported as 0.098 ± 0.067. With “NEDD4-like E3 ubiquitin-protein ligase WWP2 K453S, O00308” the abundance fitness was -0.183 ± 0.042. Work on “NEDD4-like E3 ubiquitin-protein ligase WWP2 T471H, O00308” yielded an abundance fitness of -0.259 ± 0.057. Substance “NEDD4-like E3 ubiquitin-protein ligase WWP2 T483W, O00308” has an abundance fitness of -0.163 ± 0.063. For “NEDD4-like E3 ubiquitin-protein ligase WWP2 E480R, O00308”, the abundance fitness was -0.078 ± 0.038. For “NEDD4-like E3 ubiquitin-protein ligase WWP2 T470I, O00308”, the abundance fitness was -0.734 ± 0.15. “NEDD4-like E3 ubiquitin-protein ligase WWP2 E480A, O00308” showed an abundance fitness of -0.08 ± 0.034. With “NEDD4-like E3 ubiquitin-protein ligase WWP2 R476P, O00308” the abundance fitness was -0.188 ± 0.07. “NEDD4-like E3 ubiquitin-protein ligase WWP2 T471E, O00308” showed an abundance fitness of -0.975 ± 0.11. For “NEDD4-like E3 ubiquitin-protein ligase WWP2 P475S, O00308”, the abundance fitness was -0.852 ± 0.054. With “NEDD4-like E3 ubiquitin-protein ligase WWP2 G489C, O00308” the abundance fitness was -0.066 ± 0.031. Work on “NEDD4-like E3 ubiquitin-protein ligase WWP2 S487Q, O00308” yielded an abundance fitness of -0.024 ± 0.061. For “NEDD4-like E3 ubiquitin-protein ligase WWP2 S481Y, O00308”, the abundance fitness was -0.102 ± 0.063. Work on “NEDD4-like E3 ubiquitin-protein ligase WWP2 V459M, O00308” yielded an abundance fitness of -0.07 ± 0.05. For “NEDD4-like E3 ubiquitin-protein ligase WWP2 P448E, O00308”, the abundance fitness was 0.045 ± 0.062. In the case of “NEDD4-like E3 ubiquitin-protein ligase WWP2 P447I, O00308”, the abundance fitness is reported as -0.433 ± 0.051. “NEDD4-like E3 ubiquitin-protein ligase WWP2 F479E, O00308” gave an abundance fitness of 0.027 ± 0.049. Substance “Transcription factor SOX-11 A77S, P35716” has an abundance fitness of 0.01 ± 0.044. In the case of “NEDD4-like E3 ubiquitin-protein ligase WWP2 S456N, O00308”, the abundance fitness is reported as 0.04 ± 0.074. “NEDD4-like E3 ubiquitin-protein ligase WWP2 T471F, O00308” showed an abundance fitness of -0.556 ± 0.09. “NEDD4-like E3 ubiquitin-protein ligase WWP2 Y454R, O00308” showed an abundance fitness of -0.029 ± 0.033. “NEDD4-like E3 ubiquitin-protein ligase WWP2 Q442W, O00308” gave an abundance fitness of -0.122 ± 0.072. For “NEDD4-like E3 ubiquitin-protein ligase WWP2 M440T, O00308”, the abundance fitness was -0.117 ± 0.033. In the case of “NEDD4-like E3 ubiquitin-protein ligase WWP2 F472A, O00308”, the abundance fitness is reported as -0.373 ± 0.052. Work on “Transcription factor SOX-11 I67L, P35716” yielded an abundance fitness of -0.178 ± 0.066. In the case of “NEDD4-like E3 ubiquitin-protein ligase WWP2 R468T, O00308”, the abundance fitness is reported as -0.336 ± 0.069. In the case of “NEDD4-like E3 ubiquitin-protein ligase WWP2 F479P, O00308”, the abundance fitness is reported as -0.003 ± 0.054. In the case of “NEDD4-like E3 ubiquitin-protein ligase WWP2 H465T, O00308”, the abundance fitness is reported as -0.292 ± 0.061. In the case of “NEDD4-like E3 ubiquitin-protein ligase WWP2 F472Q, O00308”, the abundance fitness is reported as -0.402 ± 0.045. With “NEDD4-like E3 ubiquitin-protein ligase WWP2 K473T, O00308” the abundance fitness was -0.097 ± 0.066. For “NEDD4-like E3 ubiquitin-protein ligase WWP2 S456Y, O00308”, the abundance fitness was -0.589 ± 0.12.
